Measured values taken from the RNAGym collection of RNA variant scans (doi:10.1093/molbev/msab373).

B1: Azoarcus group I ribozyme (parent)
chain: GUGCCUUGCGCCGGGAAACCACGCAAGGGAUGGUGUCAAAUUCGGCGAAACCUAAGCGCCCGCCCGGGCGUAUGGCAACGCCGAGCCAAGCUUCGGCGCCUGCGCCGAUGAAGGUGUAGAGACUAGACGGCACCCACCUAAGGCAAACGCUAUGGUGAAGGCAUAGUCCAGGGAGUGGCGAAAGUCACACAAACCGG

Variants of: B1
Experiment: reverse-splicing fitness (ratio to wild type); higher = more active; in vitro selection; Mg2+ level not given
Procedure, shortened: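 An in vitro group I ribozyme library with randomized positions was T7-transcribed and gel-purified. In triplicate, 10 pmol RNA in EPPS pH 7.5 was reacted with 50 pmoles of a 30-nt RNA substrate for 1 h at 37 °C across several added MgCl2 levels (1–48 mM), then stopped with EDTA. Products were reverse transcribed from a substrate-complementary primer, PCR-amplified and sequenced (HiSeq 4000). Fitness is a variant's read proportion after selection over that before, normalised to wild type.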
C82U A111C A120U A145C C150A C169G U176G showed a reverse-splicing fitness of 0.00223.
C82U A111C A120U A145C C150A C169G U176A gave a reverse-splicing fitness of 0.00308.
For C82U A111C A120U A145C C150A C169G U176C, the reverse-splicing fitness was 0.00318.
For C82U A111C A120U A145C C169U U176A, the reverse-splicing fitness was 0.00335.
C82U A111C A120U A145C C169U U176G showed a reverse-splicing fitness of 0.00205.
In the case of C82U A111C A120U A145C C169U U176C, the reverse-splicing fitness is reported as 0.00263.
C82U A111C A120G A145G C169A gave a reverse-splicing fitness of 0.0105.
In the case of C82U A111C A120G A145G C169U, the reverse-splicing fitness is reported as 0.00883.
With C82U A111C A120G A145G C169G the reverse-splicing fitness was 0.00926.
With C82U A111C A120G A145C C150U C169G U176A the reverse-splicing fitness was 0.0181.
Variant C82U A111C A120G A145C C150U C169G U176C has a reverse-splicing fitness of 0.0105.
Variant C82U A111C A120G A145C C150U C169G U176G has a reverse-splicing fitness of 0.00492.
C82U A111C A120G A145C C150A U176G showed a reverse-splicing fitness of 0.00348.
Work on C82U A111C A120G A145C C150A U176A yielded a reverse-splicing fitness of 0.00897.
C82U A111C A120G A145C C150A U176C showed a reverse-splicing fitness of 0.00967.
Variant C82U A111C A120G A145C C150U has a reverse-splicing fitness of 0.00818.
Variant C82U A111C A120G A145C C150A has a reverse-splicing fitness of 0.00617.
For C82U A111C A120G A145C C150G, the reverse-splicing fitness was 0.007.
In the case of C82U A111C A120U A145C C150G C169G U176C, the reverse-splicing fitness is reported as 0.00262.
For C82U A111C A120U A145C C150G C169G U176G, the reverse-splicing fitness was 0.00241.
C82U A111C A120U A145C C150G C169G U176A showed a reverse-splicing fitness of 0.0028.
For C82U A111C A120U A145C C150U, the reverse-splicing fitness was 0.00868.
Variant C82U A111C A120U A145C C150A has a reverse-splicing fitness of 0.00398.
C82U A111C A120U A145C C150G gave a reverse-splicing fitness of 0.00528.
C82U A111C A120G A145U C150G C169U showed a reverse-splicing fitness of 0.00734.
C82U A111C A120G A145U C150G C169G gave a reverse-splicing fitness of 0.00689.
Work on C82U A111C A120G A145U C150G C169A yielded a reverse-splicing fitness of 0.00828.
Variant C82U A111C A120G A145U C150A C169G U176C has a reverse-splicing fitness of 0.0126.
Work on C82U A111C A120G A145U C150A C169G U176A yielded a reverse-splicing fitness of 0.0105.
Variant C82U A111C A120G A145U C150A C169G U176G has a reverse-splicing fitness of 0.00431.
C82U A111C A120U A145C C150G C169U U176C gave a reverse-splicing fitness of 0.00284.
Variant C82U A111C A120U A145C C150G C169U U176G has a reverse-splicing fitness of 0.00217.
C82U A111C A120U A145C C150G C169U U176A showed a reverse-splicing fitness of 0.00332.
Variant C82U A111C A120G A145U C150G U176G has a reverse-splicing fitness of 0.00282.
C82U A111C A120G A145U C150G U176C gave a reverse-splicing fitness of 0.0141.
For C82U A111C A120G A145U C150G U176A, the reverse-splicing fitness was 0.00768.
In the case of C82U A111C A120G A145G C150G C169U U176C, the reverse-splicing fitness is reported as 0.0104.
For C82U A111C A120G A145G C150G C169U U176G, the reverse-splicing fitness was 0.00643.
For C82U A111C A120G A145G C150G C169U U176A, the reverse-splicing fitness was 0.0116.
Variant C82U A111C A120U A145C C150A C169U U176A has a reverse-splicing fitness of 0.00323.
C82U A111C A120U A145C C150A C169U U176C showed a reverse-splicing fitness of 0.00249.
Variant C82U A111C A120U A145C C150A C169U U176G has a reverse-splicing fitness of 0.00207.
C82U A111C A120G C150A C169U U176C gave a reverse-splicing fitness of 0.0146.
For C82U A111C A120G C150A C169U U176G, the reverse-splicing fitness was 0.00544.
With C82U A111C A120G C150A C169U U176A the reverse-splicing fitness was 0.0192.
In the case of C82U A111C A120G A145G C150U, the reverse-splicing fitness is reported as 0.0115.
C82U A111C A120G A145G C150G gave a reverse-splicing fitness of 0.00776.
In the case of C82U A111C A120G A145G C150A, the reverse-splicing fitness is reported as 0.00814.
Variant C82U A111C A120G A145G U176G has a reverse-splicing fitness of 0.00476.
Work on C82U A111C A120G A145G U176A yielded a reverse-splicing fitness of 0.0143.
In the case of C82U A111C A120G A145G U176C, the reverse-splicing fitness is reported as 0.0199.
In the case of C82U A111C A120G A145C C150U U176A, the reverse-splicing fitness is reported as 0.00933.
C82U A111C A120G A145C C150U U176G showed a reverse-splicing fitness of 0.00354.
Variant C82U A111C A120G A145C C150U U176C has a reverse-splicing fitness of 0.00988.
Work on C82U A111C A120G C169G U176C yielded a reverse-splicing fitness of 0.0209.
C82U A111C A120G C169G U176A showed a reverse-splicing fitness of 0.0161.
For C82U A111C A120G C169G U176G, the reverse-splicing fitness was 0.00413.
For C82U A111C A120U A145C C150G C169A U176G, the reverse-splicing fitness was 0.0024.
C82U A111C A120U A145C C150G C169A U176C gave a reverse-splicing fitness of 0.00245.
Variant C82U A111C A120U A145C C150G C169A U176A has a reverse-splicing fitness of 0.00289.
In the case of C82U A111C A120G A145C C150G U176G, the reverse-splicing fitness is reported as 0.00269.
In the case of C82U A111C A120G A145C C150G U176C, the reverse-splicing fitness is reported as 0.0106.
In the case of C82U A111C A120G A145C C150G U176A, the reverse-splicing fitness is reported as 0.00659.
Work on C82U A111C A120G A145G C150A C169G U176A yielded a reverse-splicing fitness of 0.0146.
Work on C82U A111C A120G A145G C150A C169G U176C yielded a reverse-splicing fitness of 0.0241.
Work on C82U A111C A120G A145G C150A C169G U176G yielded a reverse-splicing fitness of 0.00493.
With C82U A111C A120G A145C C169G the reverse-splicing fitness was 0.00924.
With C82U A111C A120G A145C C169U the reverse-splicing fitness was 0.007.
For C82U A111C A120G A145C C169A, the reverse-splicing fitness was 0.0073.
Variant C82U A111C A120G A145C C150A C169A has a reverse-splicing fitness of 0.00641.
With C82U A111C A120G A145C C150A C169U the reverse-splicing fitness was 0.00688.
C82U A111C A120G A145C C150A C169G showed a reverse-splicing fitness of 0.00682.
C82U A111C A120U A145C C169G U176C showed a reverse-splicing fitness of 0.00215.
C82U A111C A120U A145C C169G U176A gave a reverse-splicing fitness of 0.00206.
C82U A111C A120U A145C C169G U176G gave a reverse-splicing fitness of 0.00186.
In the case of C82U A111C A120G A145C C150A C169U U176A, the reverse-splicing fitness is reported as 0.0166.
With C82U A111C A120G A145C C150A C169U U176G the reverse-splicing fitness was 0.00441.
In the case of C82U A111C A120G A145C C150A C169U U176C, the reverse-splicing fitness is reported as 0.00704.
C82U A111C A120G A145U C150A C169A showed a reverse-splicing fitness of 0.00826.
Variant C82U A111C A120G A145U C150A C169U has a reverse-splicing fitness of 0.006.
Work on C82U A111C A120G A145U C150A C169G yielded a reverse-splicing fitness of 0.00681.
Variant C82U A111C A120G A145C U176A has a reverse-splicing fitness of 0.0119.
With C82U A111C A120G A145C U176G the reverse-splicing fitness was 0.00386.
For C82U A111C A120G A145C U176C, the reverse-splicing fitness was 0.0128.
